From patent US20240043473A1, “NOOTROPIC PEPTIDES FOR TREATING LYSOSOMAL STORAGE DISEASES” (Phoenix Nest Inc., priority 2021, published 2024)
No end group written: not given here.

Experiment: Body weight measured weekly during chronic administration
Assay type: in vivo, mouse
Conditions: chronic intranasal administration; Hgsnat^P304L or WT mice
Experimental: WT, and Hgsnat^P304L mice were randomly assigned to the treatment and control groups. The cohort size (18 mice/sex/treatment) was calculated based on mean variability of replicates in previous behavioral tests in Hgsnat^P304L mice to detect a ˜40% difference between means (power=0.8). Treatment was started at weaning (P21) which corresponds to neurodevelopmental human age of 3 years, the time of disease onset for majority of Sanfilippo patients. Since most patients are diagnosed post-symptomatically, this age would most likely become the treatment starting point for the most of patients. […] To test if chronic administration of the peptide results in major metabolic changes, the mouse body weight was measured weekly.

## AVP6: N-terminally acetylated Semax, a nootropic peptide having the amino acid sequence of MEHFPGP (SEQ ID NO:1) (Ac-MEHFPGP)
  body weight and body weight gain, treated vs untreated: No difference in body weight and body weight gain
